The target of test [1] is T1, human PILRA, G78 variant, ectopically expressed on 293 cells (human, UniProt Q9UKJ1 20-303).
T1 construct: the cells are labelled G78; also called hA G78 OE; hA
The test is described as follows: flow cytometry; blocking of NPDC1-hIgG1 binding to 293 cells expressing human PILRA G78. Background: Flow cytometry measures light scatter and fluorescence of single cells or particles in a stream.

The target in test [2] is T2, human PILRA, c-term His-Avi tag (human, UniProt Q9UKJ1 20-197, limits assumed).
T2 construct: not shown: C-terminal His-Avi tag
T2 sequence (Q9UKJ1 20-197 limits assumed): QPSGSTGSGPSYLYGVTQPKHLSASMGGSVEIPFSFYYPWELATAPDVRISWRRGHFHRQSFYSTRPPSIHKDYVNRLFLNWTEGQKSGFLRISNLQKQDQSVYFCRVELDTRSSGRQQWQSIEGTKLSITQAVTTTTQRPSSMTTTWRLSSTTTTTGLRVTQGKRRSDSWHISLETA
Description: SPR (Biacore), antibody captured, PILRA as analyte. How it is done: Experiments were performed to determine the kinetics of anti-PILRA antibody binding to human […]. The assay is depicted in FIG. 6. A rabbit anti-PILRA was used as a positive control, and H1 LALAPS was used as a negative control. Human PILRA (human PILRA, c-term His-Avi tag, 0.68 mg/mi) was used as the antigen. The running buffer was HBSTE/0.5% BSA, pH 7.4, and the regeneration solution was 10 mM glycine-HCl (pH 2.1). In the assay, antibodies were captured at 10 μg/ml by immobilized anti-huFc or anti-msFc on a Biacore CM5 chip, and human PILRA flowed at 33, 100, and 300 nM. The surface was regenerated after each analyte, and all curves were double-referenced with buffer injections.
For orientation: SPR reads the build-up and loss of mass on a sensor chip optically.

The target of test [3] is T3, murine PILRB, ectopically expressed on 293 cells (murine, UniProt Q2YFS2 29-224).
T3 construct: whole, on cells; also called mB
T3 sequence (Q2YFS2 29-224): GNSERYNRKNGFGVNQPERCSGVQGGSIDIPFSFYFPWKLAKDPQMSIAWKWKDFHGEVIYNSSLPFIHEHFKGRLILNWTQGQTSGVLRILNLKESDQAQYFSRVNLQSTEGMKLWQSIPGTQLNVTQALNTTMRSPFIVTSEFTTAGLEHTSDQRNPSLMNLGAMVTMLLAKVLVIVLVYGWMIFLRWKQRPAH
The test is described as follows: flow cytometry, 293 cells expressing target. The method, then: (§1) Briefly, conditioned media containing antibodies were incubated with 293 cells for 30 min at 4° C., washed twice, and then detected with anti-mouse IgG Alexa 647.

The target of test [4] is T4, murine PILRA, ectopically expressed on 293 cells (murine, UniProt Q2YFS3 32-302).
T4 construct: also called mA
T4 sequence (Q2YFS3 32-302): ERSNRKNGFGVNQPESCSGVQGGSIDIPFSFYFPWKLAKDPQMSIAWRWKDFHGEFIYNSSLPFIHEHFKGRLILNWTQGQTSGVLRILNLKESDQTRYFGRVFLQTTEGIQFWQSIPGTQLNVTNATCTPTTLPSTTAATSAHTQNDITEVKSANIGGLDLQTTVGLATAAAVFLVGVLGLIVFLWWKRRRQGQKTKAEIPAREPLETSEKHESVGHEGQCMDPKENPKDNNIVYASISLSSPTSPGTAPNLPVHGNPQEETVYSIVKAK
Description: flow cytometry, 293 cells expressing target. How it is done:
as §1

Test [5] has as its target T1, human PILRA, G78 variant, ectopically …. Description: flow cytometry, 293 cells expressing target. How it is done: as §1
In test [6] the target is T5, human PILRB, ectopically expressed on 293 cells (human, UniProt Q9UKJ0 20-227).
T5 construct: also called hB
T5 sequence (Q9UKJ0 20-227): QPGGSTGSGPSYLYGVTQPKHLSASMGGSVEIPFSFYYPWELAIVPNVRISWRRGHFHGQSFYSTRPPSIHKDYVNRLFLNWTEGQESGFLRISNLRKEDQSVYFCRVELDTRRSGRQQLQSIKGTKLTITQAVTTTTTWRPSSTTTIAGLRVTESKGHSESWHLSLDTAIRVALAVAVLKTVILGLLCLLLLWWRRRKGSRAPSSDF
Description: flow cytometry, 293 cells expressing target. How it is done: as §1

For test [7], the target named is cynomolgus PILRA, ectopically expressed on 293 cells (cynomolgus monkey). The test is described as follows: flow cytometry, 293 cells expressing target. How it is done: as §1
cynomolgus PILRA, ectopically expressed on 293 cells (cynomolgus monkey), sequence (chain, as listed by the source): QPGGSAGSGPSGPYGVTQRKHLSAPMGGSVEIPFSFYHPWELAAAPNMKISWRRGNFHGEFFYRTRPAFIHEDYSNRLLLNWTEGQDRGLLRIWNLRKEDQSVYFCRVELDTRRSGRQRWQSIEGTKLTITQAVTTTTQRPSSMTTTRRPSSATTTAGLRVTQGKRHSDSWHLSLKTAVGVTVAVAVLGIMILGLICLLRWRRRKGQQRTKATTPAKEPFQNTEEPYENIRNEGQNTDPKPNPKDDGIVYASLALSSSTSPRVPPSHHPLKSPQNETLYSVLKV
Test [8] concerns the target T6, PILRA Fc (soluble human PILRA) (human, UniProt Q9UKJ1 20-197, limits assumed).
T6 construct: also called soluble PILRA; not shown: Fc part, detected with anti-human IgG
The test is described as follows: flow cytometry; blocking of PILRA Fc binding to human CD3+ T cells (Donor 1019). How it is done:
The ability of conditioned media samples containing antibodies to inhibit the binding of PILRA Fc to human CD3+ T cells was assessed. Briefly, conditioned media samples containing antibodies were incubated with 1.25 ug/ml PILRA Fc for 30 min at 4° C. and then added to human T cells. After 30 minutes incubation at 4° C., cells were washed, and bound PILRA Fc was detected with anti-human IgG Alexa 647. Cells were analyzed by flow cytometry on FACS Canto II, and for all cell lines, the amount of PILRA Fc binding (MIFI) and the percentage of PILRA Fc binding in the presence of conditioned media relative to PILRA Fc binding alone was calculated. Several antibodies inhibited binding of PILRA Fc to human T cells, and a few antibodies enhanced PILRA-Fc binding to T cells. Antibodies that show enhancement in this assay may block cis inhibition to promote trans interactions or may allosterically activate to enhance trans interactions without blocking cis.

T1 sequence (Q9UKJ1 other isoform, or with tags, fused parts or gaps mutant): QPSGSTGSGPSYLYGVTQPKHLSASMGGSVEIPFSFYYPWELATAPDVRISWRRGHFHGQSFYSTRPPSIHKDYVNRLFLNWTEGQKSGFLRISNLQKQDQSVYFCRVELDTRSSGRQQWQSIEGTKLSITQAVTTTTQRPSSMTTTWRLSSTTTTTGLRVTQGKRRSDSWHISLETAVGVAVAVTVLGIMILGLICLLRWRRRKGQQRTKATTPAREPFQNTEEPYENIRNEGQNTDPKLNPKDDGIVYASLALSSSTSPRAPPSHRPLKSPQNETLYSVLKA
T6 sequence (Q9UKJ1 20-197 limits assumed): as the sequence (Q9UKJ1 20-197 limits assumed) above

B1: A6 (antibody, V domains shown)
VH: QVQLVQSGAEVKKPGSSVKVSCKASGYTFINYDINWVRQAPGQGLEWMGGIIPIFGAPVYAQDFQGRVTITADESTSTAYMELSSLRSEDTAVYYCAIADGAGWFDPWGQGTLVTVSS
VL: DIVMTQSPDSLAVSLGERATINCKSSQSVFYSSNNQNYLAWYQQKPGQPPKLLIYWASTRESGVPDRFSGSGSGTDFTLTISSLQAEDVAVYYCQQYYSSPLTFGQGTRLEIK
notes: phage campaign
Take B1: in test [1], the IC50 came out at 5.7 µg/mL. Besides, the Kd in test [2] was found to be 86.5 nM. This molecule also came in with a koff in test [2] of 0.0052 s⁻¹. Moreover, the kon in test [2] was 61000 M⁻¹ s⁻¹. Moreover, the binding result in test [3], in test [4] and in test [6] was “no binding” throughout. For the same molecule, the figures for the EC50 in test [5] and in test [7] were 1.7 µg/mL and 0.3 µg/mL, respectively.

B2: A16 (antibody, human IgG1, kappa, L234A L235A, V domains shown)
VH: QVQLVQSGAEVKKPGSSVKVSCKASGYNFLNYDVNWVRQAPGQGLEWMGGIIPIFGTANYAQKFQGRVTITADESTSTAYMELSSLRSEDTAVYYCATGVGAGWFDPWGQGTLVTVSS
VL: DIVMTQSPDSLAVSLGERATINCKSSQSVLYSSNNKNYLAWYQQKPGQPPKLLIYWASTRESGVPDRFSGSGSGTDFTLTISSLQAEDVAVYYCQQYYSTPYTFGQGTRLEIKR
B2 registered an IC50 in test [1] of 0.38 µg/mL. The molecule also came in with a Kd in test [2] of 47 nM. Also, the koff in test [2] is 0.0042 s⁻¹. The molecule also showed a kon in test [2] of 90000 M⁻¹ s⁻¹. For the same molecule, the binding result in test [3], in test [4] and in test [6] was “no binding” throughout. The EC50 in test [5] and in test [7] was 0.2 µg/mL throughout.

B3: A7 (antibody, V domains shown)
VH: QVQLVQSGAEVKKPGSSVKVSCKASGYTFTSYDINWVRQAPGQGLEWMGGIIPIFGTANYAQKFQGRVTITADESTGTAYMELSSLRSEDTAVYYCAIADGAGWFDPWGQGTLVTVSS
VL: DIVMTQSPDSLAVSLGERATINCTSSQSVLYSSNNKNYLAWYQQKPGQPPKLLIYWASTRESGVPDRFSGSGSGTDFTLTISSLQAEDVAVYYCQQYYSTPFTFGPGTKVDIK
notes: phage campaign
Consider B3, for which, in test [1], the IC50 stood at 0.77 µg/mL. Moreover, the Kd in test [2] turned out to be 75.7 nM. In test [2], this molecule displayed a koff of 0.0064 s⁻¹. The molecule further had a kon in test [2] of 85000 M⁻¹ s⁻¹. Also, the binding result in test [3], in test [4] and in test [6] was “no binding” in each case. Moreover, the EC50 in test [5] amounted to 0.5 µg/mL; in test [7] it was 0.3 µg/mL.

B4: A10 (antibody, V domains shown)
VH: QVQLVQSGAEVKKPGASVKVSCKASGYTFTDYYIHWVRQAPGQGLEWMGWMNPNSGNTGYAQKFQGRVTMTRDTSTSTVYMELSSLRSEDTAVYYCAREGSSGWYVDYWGQGTLVTVSS
VL: DIQMTQSPSSLSASVGDRVTITCQASQDISQFLNWYQQKPGKAPKLLIYDAYSLQSGVPSRFSGSGSGTDFTLTISSLQPEDFATYYCQQANSFPLTFGQGTKVEIK
notes: phage campaign
In test [1], B4 showed an IC50 of 0.48 µg/mL. This molecule gave a Kd in test [2] of 42.9 nM. In addition, the koff in test [2] was determined as 0.0054 s⁻¹. The molecule further had a kon in test [2] of 130000 M⁻¹ s⁻¹. Moreover, the binding result in test [3], in test [4] and in test [6] was “no binding” in each case. Further, the figures for the EC50 in test [5] and in test [7] were 1.1 µg/mL and 17.3 µg/mL, respectively.

B5: A9 (antibody, V domains shown)
VH: QVQLVQSGAEVKKPGSSVKVSCKASGYTFTDYAISWVRQAPGQGLEWMGGITPVFGTPSYAQKFQGRVTITADESTSTAYMELSSLRSEDTAVYYCARGWELRRDPFDYWGQGTLVTVSS
VL: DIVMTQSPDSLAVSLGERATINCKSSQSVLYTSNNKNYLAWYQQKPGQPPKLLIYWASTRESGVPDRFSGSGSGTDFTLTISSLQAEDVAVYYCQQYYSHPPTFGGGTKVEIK
notes: phage campaign
B5 yielded an IC50 in test [1] of 0.6 µg/mL. In test [2], this molecule had a Kd of 150 nM. For the same molecule, in test [2], the koff was 0.011 s⁻¹. In test [2], this molecule returned a kon of 70000 M⁻¹ s⁻¹. Moreover, the binding result in test [3], in test [4] and in test [6] was “no binding” each time. Moreover, the EC50 is 0.8 µg/mL in test [5] and 14.6 µg/mL in test [7].

B6: E21 (antibody, V domains shown)
VH: QVQLVQSGAEVKKPGSSVKVSCKASGYTFSNYDINWVRQAPGQGLEWMGGIIPIFGTANYALKFQGRVTITADESTSTAYMELSSLRSEDTAVYYCARGGPWLYFDYWGQGTLVTVSS
VL: DIQMTQSPSSLSASVGDRVTITCRASQSISTYLNWYQQKPGKAPKLLIYAASTLQSGVPSRFSGSGSGTDFTLTISSLQPEDFATYYCQQSYSSPLTFGQGTKLEIK
notes: phage campaign
With B6, the IC50 in test [1] turned out to be 0.6 µg/mL. The molecule also gave a Kd in test [2] of 51.3 nM. Further, the koff in test [2] is 0.0061 s⁻¹. In test [2], this molecule registered a kon of 120000 M⁻¹ s⁻¹. The binding result in test [3], in test [4] and in test [7] was “no binding” each time. Also, the figures for the EC50 in test [5] and in test [6] were 0.7 µg/mL and 3.4 µg/mL, respectively.

B7: A5 (antibody, V domains shown)
VH: QVQLVQSGAEVKKPGSSVKVSCKASGYTFTDYYMNWVRQAPGQGLEWMGGIIPIFGTADYAQRFQGRVTITADESTSTAYMELSSLRSEDTAVYYCARDAGYYGMDVWGQGTLVTVSS
VL: EIVMTQSPATLSVSPGERATLSCRASQSVSNYLAWYQQKPGQAPRLLIYGASTRATGIPARFSGSGSGTEFTLTISSLQSEDFAVYYCQQFDDLPLTFGPGTKVEIK
notes: phage campaign
In test [1], B7 showed an IC50 of 0.64 µg/mL. The same molecule returned a Kd in test [2] of 32.1 nM. The koff in test [2] was 0.0045 s⁻¹. Also, the kon in test [2] turned out to be 140000 M⁻¹ s⁻¹. The binding result in test [3], in test [4] and in test [6] was “no binding” each time. In addition, the EC50 in test [5] is 3.4 µg/mL; in test [7], 2.8 µg/mL.

B8: D1 (antibody, V domains shown)
VH: QVQLQQSGVELARPGASVKLSCKASGYNFTSYGINWVKQRTGQGLEWIGKSYPTSGNNYYNEKFKGKATVTADKSSSTAYMELRSLTSEDSAVYFCGVWYGSLFAHWGQGTLVTVTA
VL: DIVMTQSQKFMSTSVGDRVRVTCKASQNVGFNVAWYQQKPGQSPKVLIYSASYRYSGVPDRFTGSGSGTDFTLTITNVQSEDLAEYFCHQYNNFPFTFGSGTKLEIK
notes: second hybridoma campaign
With B8, the binding result in test [3], in test [4], in test [6] and in test [7] was “no binding” in each case. The same molecule displayed an EC50 in test [5] of 0.3 µg/mL. This molecule also returned an IC50 in test [8] of 1.6 µg/mL.

B9: D3 (antibody, V domains shown)
VH: QVQLQQPGADLVKPGASVKVSCKTSGYSFTSYWIHWVKQRPGQGLEWIGRVHPSDSDTDYSQKFKGKATLTVDDSSSTVYMQLTNLTSEDSAVYYCAIEWGYLFDYWGQGTTLSVSS
VL: DIVLTQSPISLAVSLGQRATISCWASQSVSTSSYSYVHWYQQKPGQPPKLLIKYASNLDSGVPARFSGSGSGTDFTLNIHPVDEEDTATYYCHHNWEIPYTFGGGTKLEIK
notes: second hybridoma campaign
Regarding B9, the binding result in test [3], in test [4], in test [6] and in test [7] was “no binding” throughout. Further, in test [5], the EC50 came to 0.2 µg/mL. In addition, in test [8], the IC50 was found to be 2.9 µg/mL.

B10: D4 (antibody, V domains shown)
VH: QVQLQQSGADLARPGASVKLSCKASGYTFTSYGIAWMKQRTGQGLEWIGEIYPRSGNPYYNDRFKGKATLTADRSSNTTYMELRSLTSEDSAVYFCARWVGGIIDYWGQGTSVTVSS
VL: DIVMTQSQKFMSTSIGDRVSVTCKASQNVGFNVAWYQQKPGQSPKPLIYSASYRYSGVPDRFTGSESGTEFTLIISNVQSEDLAEYFCQQYDSYPFTFGSGTNLEIK
notes: second hybridoma campaign
Take B10: the binding result in test [3], in test [4], in test [6] and in test [7] was “no binding” in each case. For the same molecule, in test [5], the EC50 was 0.4 µg/mL. In test [8], the IC50 was 3.77 µg/mL.

B11: D7 (antibody, V domains shown)
VH: QVQLKESGPGLVAPSQSLSITCTVSGFSLTSYAISWVRQPPGKGLEWLGIIWTGGDTNYNSGLKSRLSITKDNSKSQVFLKMNSLQTDDTSRYYCARNSLFYGITPYYFDYWGQGTTLTVSS
VL: DIVLTQSPATLSVTPGDSVSLSCRASQSIRNDLHWYQQKSHESPRLLIKYASQSISGIPSRFSGSGSGTDFTLTINVLETEDFGMYFCQQSNGWPLTFGAGTKLELK
notes: second hybridoma campaign
B11: the binding result in test [3] and in test [4] was “no binding” in each case. In addition, the EC50 in test [5] amounted to 0.3 µg/mL; in test [6], 21.2 µg/mL; in test [7] it was 1 µg/mL. Besides, the concentration for half-maximal inhibition (IC50) in test [8] came to 5.75 µg/mL.

The term IC50 denotes the concentration that inhibits the measured activity by half. For orientation: Kd means the equilibrium constant for the complex coming apart. A higher Kd goes with lower affinity. Usually koff stands for a measure of how fast the partners let go of each other. Low values mean slow dissociation, high ones fast dissociation. A word on the kon: it is the rate constant with which the complex forms. The low end stands for slow association, the high end for fast association. For orientation: EC50 means the concentration giving half of the maximal effect. A high value points to lower potency in that assay.

These data come from patent US20240425587A1 (Alector, published 2024).
